Reference: patent publication US20060234940A1
Where no end group is shown, it is not given here. The star is where a group is joined. Thia = thiazolidide, C1CN(*)CS1

What was measured:
[1] = biological target: recombinant human DP IV, wild type (human) (UniProt P27487); assay: photometric assay, competition with the standard substrate GP-4NA
[2] = biological target: recombinant human DP IV, wild type (human) (UniProt P27487); assay: MALDI-TOF MS, inhibition of DP IV-catalyzed truncation of the substrate PACAP-38 after preincubation with TFTSDY
[3] = biological target: recombinant human DP IV, wild type (human) (UniProt P27487); assay: MALDI-TOF MS, inhibition of DP IV-catalyzed truncation of the substrate PACAP-27 after preincubation with TFTSDY
[4] = biological target: recombinant human DP IV, wild type (human) (UniProt P27487); assay: MALDI-TOF MS, inhibition of DP IV-catalyzed truncation of the substrate glucagon after preincubation with TFTSDY
[5] = biological target: recombinant human DP IV, wild type (human) (UniProt P27487); assay: MALDI-TOF MS, inhibition of DP IV-catalyzed truncation of the substrate GIP after preincubation with TFTSDY

recombinant human DP IV, wild type (human), sequence (P27487 other isoform, or with tags, fused parts or gaps): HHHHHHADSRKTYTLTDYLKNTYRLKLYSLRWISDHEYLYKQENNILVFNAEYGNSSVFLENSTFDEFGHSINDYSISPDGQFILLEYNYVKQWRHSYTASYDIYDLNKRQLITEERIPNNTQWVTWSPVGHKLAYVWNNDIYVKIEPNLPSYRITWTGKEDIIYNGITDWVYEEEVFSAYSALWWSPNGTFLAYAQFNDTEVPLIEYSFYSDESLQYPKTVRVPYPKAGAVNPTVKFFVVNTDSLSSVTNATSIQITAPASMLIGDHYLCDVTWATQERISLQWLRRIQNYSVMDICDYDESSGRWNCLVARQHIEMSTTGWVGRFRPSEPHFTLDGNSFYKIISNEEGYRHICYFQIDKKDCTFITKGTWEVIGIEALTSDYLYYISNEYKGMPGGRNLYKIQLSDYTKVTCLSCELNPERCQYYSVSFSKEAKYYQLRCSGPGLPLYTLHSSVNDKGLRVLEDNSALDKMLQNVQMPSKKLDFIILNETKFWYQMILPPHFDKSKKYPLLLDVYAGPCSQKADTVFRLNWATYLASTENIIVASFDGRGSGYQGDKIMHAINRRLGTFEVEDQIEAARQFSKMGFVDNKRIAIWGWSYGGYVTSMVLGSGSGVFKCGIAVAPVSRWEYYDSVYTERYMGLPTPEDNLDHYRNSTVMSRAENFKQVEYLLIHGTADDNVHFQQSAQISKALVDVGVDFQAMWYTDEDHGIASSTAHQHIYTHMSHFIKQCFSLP

| Binder | Ki [1] | Ki [2] | Ki [3] | Ki [4] | Ki [5] |
| --- | --- | --- | --- | --- | --- |
| HSDGIFTDSYSRYRKQMAVKKYLAAVLGKRYKQRVKNK (peptide, UniProt P18509 132-169, looked up, ends and bridges not checked) [PACAP-38] | 38.3 µM | – | – | – | – |
| TFTSDY [hexapeptide TFTSDY] | – | 2.8 µM | 26.7 µM | 3.7 µM | 14 µM |

More lines, in order of falling Ki [1], values ahead:

| Ki [1] | Ki [2] | Ki [3] | Ki [4] | Ki [5] | Binder |
| --- | --- | --- | --- | --- | --- |
| 0.0508 µM | – | – | – | – | RRLSYSRRRFE-Thia (also: linkage of decapeptide to Glu not explained) [Transp 01 (…-E-Thia)] |
| 0.0351 µM | – | – | – | – | YAESTF-NH2 [YAESTF amide] |
